Measurements: publication PMC10458530, “Synthesis and Evaluation of ePSMA-DM1: A New Theranostic Small-Molecule Drug Conjugate (T-SMDC) for Prostate Cancer” (Pharmaceuticals, 2023)
Read-outs that look alike come from different tables or passages of the source. Non-standard residues stand in square brackets, D forms with d. Residues, ends and D or L forms follow the SMILES beside them. *: point of attachment. Propanoyl(3-SS-DM1) = COc1cc2cc(c1Cl)N(C)C(=O)C[C@H](OC(=O)[C@H](C)N(C)C(=O)CCSSCCC(=O)*)[C@]1(C)O[C@H]1[C@H](C)[C@@H]1C[C@@](O)(NC(=O)O1)[C@H](OC)/C=C/C=C(\C)C2; DOTA = O=C(O)CN1CCN(CC(=O)O)CCN(CC(=O)*)CCN(CC(=O)O)CC1; EuK = O=C(O)CC[C@H](NC(=O)N[C@@H](CCCCN*)C(=O)O)C(=O)O; Sta = CC(C)C[C@H](N)[C@@H](O)CC(=O)O; Ahx = NCCCCCC(=O)O

Experiments:
[1] = Ex vivo biodistribution; format: in vivo, mouse; conditions: male, mouse, intravenous, total radioactivity; for tissue uptake at 1 h: 1 h p.i.; for tissue uptake at 4 h: 4 h p.i.; for tissue uptake at 24 h: 24 h p.i.
Method: Animal experiments were performed using male BALB/c nude mice (8–10 weeks old; Janvier Labs, Le Genest-Saint-Isle, France). Animals were housed in individually ventilated cages (Blue line IVC, 2 mice per cage) under sterile standard conditions with cage enrichments present and free access to animal chow (Sniff GmbH, Soest, Germany) and water. They were acclimated for 1 week prior to experiments. Mice were subcutaneously inoculated with 4.0 × 10^6 LS174T cells in the right flank diluted in 100 μL of cell suspension […]. The average tumor volume size per group (n = 4) was of 206.2 ± 7.9 mm^3 (average weight of 105.8 ± 7.3 mg) after non-blinded grouping to enable homogenous tumor size distribution. [^111In]In-ePSMA-DM1 was injected intravenously via the tail vein. All experiments were approved by the institutional Animal Welfare Committee and were conducted in accordance to the guidelines of the Revised Dutch Act on Animal Experimentation (WOD).
Mice were intravenously injected with ~1 nmol of [^111In]In-ePSMA-DM1 (5 MBq). Mice (n = 4/timepoint) were euthanized by cervical dislocation at 1, 4 and 24 h p.i. A block group (co-injection of 50 nmol of PSMA-617) was included, and mice were euthanized at 4 h p.i. Organs (blood, heart, lungs, liver, spleen, stomach, intestines, pancreas, kidneys, muscle, skin, bone and prostate) and the tumors were collected in pre-weighed tubes, weighed after organ collection, and measured in the γ-counter, for which the calibration factor was determined by measuring different known activities of In-111. Activity was corrected for decay, and uptake was expressed as percentage of the injected dose per gram of the tissue (% ID/g). The biological half-lives in tissues of [^111In]In-ePSMA-DM1 were determined using a one-phase decay algorithm in GraphPad Prism 9.0 (GraphPad Software, Boston, MA, USA).

[2] = LogD7.4 by shake-flask method; format: physicochemical; conditions: PBS pH 7.4/n-octanol
Method: The distribution coefficients (LogD7.4 values) were determined by the shake-flask method, in which 2 μL (~0.5 MBq) of [^111In]In-ePSMA-DM1 was added to an Eppendorf tube containing 1 mL of PBS (0.01 M, pH 7.4)/n-octanol (v/v, 1:1). After vigorous vortexing, the solution was centrifuged at 2500 g for 3 min for phase separation. The n-octanol phase was separated from the PBS phase into a new Eppendorf tube and centrifuged for 15 min. Samples (3 × 10 μL) of the two phases were taken out and measured in the γ-counter. LogD7.4 values were calculated by using the following equation: LogD7.4 = log [(counts in octanol phase)/(counts in aqueous phase)] and the experiment was performed in triplicate.

[3] = BALB/c nude (BALB/c nu/nu), blood, 1 nmol, read-out: uptake in blood
[4] = BALB/c nude (BALB/c nu/nu), heart, 1 nmol, read-out: uptake in heart
[5] = BALB/c nude (BALB/c nu/nu), kidney, 1 nmol, read-out: uptake in kidney
[6] = BALB/c nude (BALB/c nu/nu), liver, 1 nmol, read-out: uptake in liver
[7] = BALB/c nude (BALB/c nu/nu), lung, 1 nmol, read-out: uptake in lung
[8] = BALB/c nude (BALB/c nu/nu), muscle, 1 nmol, read-out: uptake in muscle
[9] = BALB/c nude (BALB/c nu/nu), pancreas, 1 nmol, read-out: uptake in pancreas
[10] = BALB/c nude (BALB/c nu/nu), skin, 1 nmol, read-out: uptake in skin
[11] = BALB/c nude (BALB/c nu/nu), spleen, 1 nmol, read-out: uptake in spleen
[12] = BALB/c nude (BALB/c nu/nu), stomach, 1 nmol, read-out: uptake in stomach
[13] = BALB/c nude (BALB/c nu/nu), tumor, 1 nmol, read-out: uptake in tumor
[14] = BALB/c nude (nu/nu), bone, 1 nmol, read-out: uptake in bone
[15] = BALB/c nude (nu/nu), intestines, 1 nmol, read-out: uptake in intestines
[16] = BALB/c nude (nu/nu), prostate, 1 nmol, read-out: uptake in prostate

In the case of COc1cc2cc(c1Cl)N(C)C(=O)C[C@H](OC(=O)[C@H](C)N(C)C(=O)CCSSCCC(=O)NCCCC[C@H](NC(=O)CN1CCN(CC(=O)O)CCN(CC(=O)O)CCN(CC(=O)O)CC1)C(=O)N[C@@H](CC(=O)O)C(=O)N[C@@H](Cc1ccccc1)C(=O)N[C@@H](CC(C)C)[C@@H](O)CC(=O)NCCCCCC(=O)NCCCC[C@H](NC(=O)N[C@@H](CCC(=O)O)C(=O)O)C(=O)O)[C@]1(C)O[C@H]1[C@H](C)[C@@H]1C[C@@](O)(NC(=O)O1)[C@H](OC)/C=C/C=C(\C)C2 [[^111In]In-ePSMA-DM1, metal not drawn] ({DOTA}-K(Propanoyl(3-SS-DM1))DF[Sta][Ahx]-EuK), the tissue uptake at 1 h [1, 3] is reported as 1.43 ± 0.04 %ID/g, the tissue uptake at 4 h [1, 3] is reported as 0.37 ± 0.01 %ID/g and the tissue uptake at 24 h [1, 3] is reported as 0.04 %ID/g. It also gave a tissue uptake at 4 h ([1]; BALB/c nude (BALB/c nu/nu), blood, block (co-injection of PSMA-617), read-out: uptake in blood) of 0.3 ± 0.04 %ID/g, a tissue uptake at 1 h [1, 4] of 0.65 ± 0.1 %ID/g and a tissue uptake at 4 h [1, 4] of 0.23 ± 0.04 %ID/g. It also gave a tissue uptake at 24 h [1, 4] of 0.1 ± 0.02 %ID/g, a tissue uptake at 4 h ([1]; BALB/c nude (BALB/c nu/nu), heart, block (co-injection of PSMA-617), read-out: uptake in heart) of 0.18 %ID/g and a tissue uptake at 1 h [1, 5] of 34 ± 2.54 %ID/g. The tissue uptake at 4 h [1, 5] was 31.6 ± 1.78 %ID/g, the tissue uptake at 24 h [1, 5] was 13.2 ± 0.95 %ID/g and the tissue uptake at 4 h ([1]; BALB/c nude (BALB/c nu/nu), kidney, block (co-injection of PSMA-617), read-out: uptake in kidney) was 24 ± 1.46 %ID/g. For the same molecule, the tissue uptake at 1 h [1, 6] was 0.68 %ID/g, the tissue uptake at 4 h [1, 6] was 0.63 ± 0.02 %ID/g and the tissue uptake at 24 h [1, 6] was 0.39 ± 0.04 %ID/g. For the same molecule, the tissue uptake at 4 h ([1]; BALB/c nude (BALB/c nu/nu), liver, block (co-injection of PSMA-617), read-out: uptake in liver) was 0.56 ± 0.05 %ID/g, the tissue uptake at 1 h [1, 7] was 1.34 ± 0.18 %ID/g and the tissue uptake at 4 h [1, 7] was 0.4 ± 0.03 %ID/g. It also gave a tissue uptake at 24 h [1, 7] of 0.25 ± 0.12 %ID/g, a tissue uptake at 4 h ([1]; BALB/c nude (BALB/c nu/nu), lung, block (co-injection of PSMA-617), read-out: uptake in lung) of 0.51 ± 0.26 %ID/g and a tissue uptake at 1 h [1, 8] of 0.3 ± 0.06 %ID/g. It also gave a tissue uptake at 4 h [1, 8] of 0.21 ± 0.16 %ID/g, a tissue uptake at 24 h [1, 8] of 0.07 ± 0.01 %ID/g and a tissue uptake at 4 h ([1]; BALB/c nude (BALB/c nu/nu), muscle, block (co-injection of PSMA-617), read-out: uptake in muscle) of 0.1 ± 0.01 %ID/g. It also gave a tissue uptake at 4 h [1, 9] of 0.17 ± 0.01 %ID/g, a tissue uptake at 24 h [1, 9] of 0.09 ± 0.01 %ID/g and a tissue uptake at 4 h ([1]; BALB/c nude (BALB/c nu/nu), pancreas, block (co-injection of PSMA-617), read-out: uptake in pancreas) of 0.14 ± 0.02 %ID/g. It also gave a tissue uptake at 1 h [1, 10] of 1.37 ± 0.29 %ID/g, a tissue uptake at 4 h [1, 10] of 0.75 ± 0.12 %ID/g and a tissue uptake at 1 h [1, 11] of 1.32 ± 0.28 %ID/g. The tissue uptake at 4 h [1, 11] was 0.47 ± 0.08 %ID/g, the tissue uptake at 24 h [1, 11] was 0.27 ± 0.01 %ID/g and the tissue uptake at 4 h ([1]; BALB/c nude (BALB/c nu/nu), spleen, block (co-injection of PSMA-617), read-out: uptake in spleen) was 0.32 ± 0.02 %ID/g. For the same molecule, the tissue uptake at 1 h [1, 12] was 0.8 ± 0.61 %ID/g, the tissue uptake at 4 h [1, 12] was 0.47 ± 0.32 %ID/g and the tissue uptake at 4 h [1, 13] was 1.19 ± 0.22 %ID/g. It also gave a tissue uptake at 24 h [1, 13] of 0.5 ± 0.14 %ID/g, a tissue uptake at 4 h ([1]; BALB/c nude (BALB/c nu/nu), tumor, block (co-injection of PSMA-617), read-out: uptake in tumor) of 0.8 ± 0.31 %ID/g and a tissue uptake at 1 h [1, 14] of 0.73 ± 0.27 %ID/g. The tissue uptake at 4 h [1, 14] was 0.41 ± 0.06 %ID/g, the tissue uptake at 24 h [1, 14] was 0.3 ± 0.03 %ID/g and the tissue uptake at 4 h ([1]; BALB/c nude (nu/nu), bone, block (co-injection of PSMA-617), read-out: uptake in bone) was 0.33 ± 0.04 %ID/g. For the same molecule, the tissue uptake at 1 h [1, 15] was 0.56 ± 0.19 %ID/g, the tissue uptake at 4 h [1, 15] was 0.45 ± 0.2 %ID/g and the tissue uptake at 24 h [1, 15] was 0.12 ± 0.03 %ID/g. For the same molecule, the tissue uptake at 4 h ([1]; BALB/c nude (nu/nu), intestines, block (co-injection of PSMA-617), read-out: uptake in intestines) was 0.56 ± 0.35 %ID/g, the tissue uptake at 1 h ([1]; BALB/c nude (nu/nu), pancreas, 1 nmol, read-out: uptake in pancreas) was 0.43 ± 0.11 %ID/g and the tissue uptake at 1 h [1, 16] was 1.92 ± 0.87 %ID/g. The tissue uptake at 4 h [1, 16] was 0.46 ± 0.19 %ID/g, the tissue uptake at 24 h [1, 16] was 0.16 ± 0.03 %ID/g and the tissue uptake at 4 h ([1]; BALB/c nude (nu/nu), prostate, block (co-injection of PSMA-617), read-out: uptake in prostate) was 0.4 ± 0.18 %ID/g. It also gave a tissue uptake at 24 h ([1]; BALB/c nude (nu/nu), skin, 1 nmol, read-out: uptake in skin) of 0.44 ± 0.05 %ID/g, a tissue uptake at 4 h ([1]; BALB/c nude (nu/nu), skin, block (co-injection of PSMA-617), read-out: uptake in skin) of 0.57 ± 0.19 %ID/g and a tissue uptake at 24 h ([1]; BALB/c nude (nu/nu), stomach, 1 nmol, read-out: uptake in stomach) of 0.05 ± 0.02 %ID/g. It also gave a tissue uptake at 4 h ([1]; BALB/c nude (nu/nu), stomach, block (co-injection of PSMA-617), read-out: uptake in stomach) of 0.3 ± 0.24 %ID/g, a tissue uptake at 1 h ([1]; BALB/c nude (nu/nu), tumor, 1 nmol, read-out: uptake in tumor) of 2.39 ± 0.29 %ID/g and a logD [2] of -2.47 ± 0.11.
